Each block holds one binder with its values, some of them ahead of it.
How the values were obtained:
Experiment in all cases: ELISA, IgG:IgE hexamers on receptor-GST
[1] = molecular target: T1, human FcγRIIB α subunit extracellular domain-6His-GST fusion (human, UniProt P31994 43-217)
T1 construct: not shown: glutathione S-transferase (GST)
T1 sequence: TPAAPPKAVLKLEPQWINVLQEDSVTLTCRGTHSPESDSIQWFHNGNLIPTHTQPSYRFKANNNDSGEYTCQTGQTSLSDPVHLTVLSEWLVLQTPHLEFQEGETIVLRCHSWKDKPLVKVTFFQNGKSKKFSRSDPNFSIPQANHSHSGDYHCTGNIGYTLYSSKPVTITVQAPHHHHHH

[2] = molecular target: T2, human FcγRIIA-R131 α subunit extracellular domain-6His-GST fusion (human, UniProt P12318 34-217)
T2 construct: also called FcγRIIA-Arg131; not shown: glutathione S-transferase (GST)
T2 sequence: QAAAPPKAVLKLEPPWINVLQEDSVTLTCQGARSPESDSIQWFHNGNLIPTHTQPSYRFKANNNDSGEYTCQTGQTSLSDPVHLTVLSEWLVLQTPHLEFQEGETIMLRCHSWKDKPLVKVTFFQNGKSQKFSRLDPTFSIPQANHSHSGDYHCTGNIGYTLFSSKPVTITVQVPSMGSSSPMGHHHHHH

[3] = molecular target: T3, human FcγRIIIA-F158 α subunit extracellular domain-6His-GST fusion (human, UniProt P08637 17-208)
T3 construct: also called FcγRIIIA-Phe158; not shown: glutathione S-transferase (GST)
T3 sequence (P08637 other isoform, or with tags, fused parts or gaps, form in doubt): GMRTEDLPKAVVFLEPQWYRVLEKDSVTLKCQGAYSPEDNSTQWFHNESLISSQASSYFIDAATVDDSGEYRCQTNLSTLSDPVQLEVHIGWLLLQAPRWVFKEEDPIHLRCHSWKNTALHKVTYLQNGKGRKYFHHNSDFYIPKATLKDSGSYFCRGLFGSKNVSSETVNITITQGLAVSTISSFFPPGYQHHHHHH

B1: E27 IgG1 variant S267(280)A/R255(268)A (antibody)
heavy: not shown
light: DIQLTQSPSSLSASVGDRVTITCRASKPVDGEGDSYLNWYQQKPGKAPKLLIYAASYLESGVPSRFSGSGSGTDFTLTISSLQPEDFATYYCQQSHEDPYTFGQGTKVEIKRTVAAPSVFIFPPSDEQLKSGTASVVCLLNNFYPREAKVQWKVDNALQSGNSQESVTEQDSKDSTYSLSSTLTLSKADYEKHKVYACEVTHQGLSSPVTKSFNRGEC
notes: also called IG2 247
- ratio to native IgG1 [1]: 1.72
- ratio to native IgG1 [2]: 1.6
- ratio to native IgG1 [3]: 0.88

B3: E27 IgG1 variant S298(317)A/E333(352)A (antibody)
heavy: not shown
light: DIQLTQSPSSLSASVGDRVTITCRASKPVDGEGDSYLNWYQQKPGKAPKLLIYAASYLESGVPSRFSGSGSGTDFTLTISSLQPEDFATYYCQQSHEDPYTFGQGTKVEIKRTVAAPSVFIFPPSDEQLKSGTASVVCLLNNFYPREAKVQWKVDNALQSGNSQESVTEQDSKDSTYSLSSTLTLSKADYEKHKVYACEVTHQGLSSPVTKSFNRGEC
- ratio to native IgG1 [1]: 0.16
- ratio to native IgG1 [2]: 0.34
- ratio to native IgG1 [3]: 1.53

B4: E27 IgG1 variant S298(317)A/E333(352)A/K334(353)A (antibody)
heavy: EVQLVESGGGLVQPGGSLRLSCAVSGYSITSGYSWNWIRQAPGKGLEWVASIKYSGETKYNPSVKGRITISRDDSKNTFYLQMNSLRAEDTAVYYCARGSHYFGHWHFAVWGQGTLVTVSSASTKGPSVFPLAPSSKSTSGGTAALGCLVKDYFPEPVTVSWNSGALTSGVHTFPAVLQSSGLYSLSSVVTVPSSSLGTQTYICNVNHKPSNTKVDKKVEPKSCDKTHTCPPCPAPELLGGPSVFLFPPKPKDTLMISRTPEVTCVVVDVSHEDPEVKFNWYVDGVEVHNAKTKPREEQYNATYRVVSVLTVLHQDWLNGKEYKCKVSNKALPAPIAATISKAKGQPREPQVYTLPPSREEMTKNQVSLTCLVKGFYPSDIAVEWESNGQPENNYKTTPPVLDSDGSFFLYSKLTVDKSRWQQGNVFSCSVMHEALHNHYTQKSLSLSPGK
light: DIQLTQSPSSLSASVGDRVTITCRASKPVDGEGDSYLNWYQQKPGKAPKLLIYAASYLESGVPSRFSGSGSGTDFTLTISSLQPEDFATYYCQQSHEDPYTFGQGTKVEIKRTVAAPSVFIFPPSDEQLKSGTASVVCLLNNFYPREAKVQWKVDNALQSGNSQESVTEQDSKDSTYSLSSTLTLSKADYEKHKVYACEVTHQGLSSPVTKSFNRGEC
notes: also called IG2 110
- ratio to native IgG1 [1]: 0.15
- ratio to native IgG1 [2]: 0.34
- ratio to native IgG1 [3]: 1.51

Continued, values first:

- ratio to native IgG1 [1]: 0.08
- ratio to native IgG1 [2]: 0.11
- ratio to native IgG1 [3]: 0.9
B2: E27 IgG1 variant T256(269)A/D280(295)A/R292(309)A/S298(317)A/T307(326)A (antibody)
heavy: EVQLVESGGGLVQPGGSLRLSCAVSGYSITSGYSWNWIRQAPGKGLEWVASIKYSGETKYNPSVKGRITISRDDSKNTFYLQMNSLRAEDTAVYYCARGSHYFGHWHFAVWGQGTLVTVSSASTKGPSVFPLAPSSKSTSGGTAALGCLVKDYFPEPVTVSWNSGALTSGVHTFPAVLQSSGLYSLSSVVTVPSSSLGTQTYICNVNHKPSNTKVDKKVEPKSCDKTHTCPPCPAPELLGGPSVFLFPPKPKDTLMISRAPEVTCVVVDVSHEDPEVKFNWYVAGVEVHNAKTKPAEEQYNATYRVVSVLAVLHQDWLNGKEYKCKVSNKALPAPIEKTISKAKGQPREPQVYTLPPSREEMTKNQVSLTCLVKGFYPSDIAVEWESNGQPENNYKTTPPVLDSDGSFFLYSKLTVDKSRWQQGNVFSCSVMHEALHNHYTQKSLSLSPGK
light: DIQLTQSPSSLSASVGDRVTITCRASKPVDGEGDSYLNWYQQKPGKAPKLLIYAASYLESGVPSRFSGSGSGTDFTLTISSLQPEDFATYYCQQSHEDPYTFGQGTKVEIKRTVAAPSVFIFPPSDEQLKSGTASVVCLLNNFYPREAKVQWKVDNALQSGNSQESVTEQDSKDSTYSLSSTLTLSKADYEKHKVYACEVTHQGLSSPVTKSFNRGEC

- ratio to native IgG1 [1]: 0.19
- ratio to native IgG1 [2]: 0.41
- ratio to native IgG1 [3]: 1.62
B5: E27 IgG1 variant S298(317)A/K334(353)A (antibody)
heavy: not shown
light: DIQLTQSPSSLSASVGDRVTITCRASKPVDGEGDSYLNWYQQKPGKAPKLLIYAASYLESGVPSRFSGSGSGTDFTLTISSLQPEDFATYYCQQSHEDPYTFGQGTKVEIKRTVAAPSVFIFPPSDEQLKSGTASVVCLLNNFYPREAKVQWKVDNALQSGNSQESVTEQDSKDSTYSLSSTLTLSKADYEKHKVYACEVTHQGLSSPVTKSFNRGEC

Source: US7183387 (Genentech, dated 2007)
